Data as given in publication PMC4593522, “Development of a Radiolabeled Peptide-Based Probe Targeting MT1-MMP for Breast Cancer Detection” (PLoS ONE, 2015).
Like-named read-outs stand apart in the source and are kept apart here. Square brackets hold non-standard residues; d marks the D form. Peptide text beside a SMILES is read from it. * marks the point of attachment. HYNIC = NNc1ccc(C(=O)*)cn1; AEEA = NCCOCCOCC(=O)O

Experiment: In vivo biodistribution study (ex vivo organ counting)
Design: species or system mice
Settings: female, mouse, iv, total radioactivity, mean ± SD, n = 3
Experimental: All animal experiments were approved by Jilin University Health Science Center Animal Care and Use Committee. Human breast carcinoma cell line MDA-MB-231 with high MT1-MMP expression and human lung adenocarcinomaepithelial cell line A549 with low MT1-MMP expression were cultured in DMEM medium containing 10% (v/v) fetal bovine serum (Invitrogen) supplemented with penicillin (100 μg/mL) and streptomycin (100 μg/mL) at 37°C with 5% CO2. MDA-MB-231 and A549 tumor models were established by subcutaneous injection of 5×10^6 cells into the upper right front flank of female athymic nude mice (Department of Experimental Animal, Peking University Health Science Center). Tumor growth was monitored by caliper measurements three times a week after the tumors are palpable. The mice were used for SPET/CT imaging when the tumor volume reached about 200 mm3 (about 14 days after tumor inoculations). The tumor volume was determined as the formula: V = a × (b^2)/2, where a and b are the length and width of each tumor in mm respectively. During the injection and image acquisition process, the mice were anesthetized with 2.5% isoflurane in oxygen delivered at a flow rate of 1.5 L/min.
Animals were divided into 4 groups (n = 3) for 4 time points with approximately equal distribution of tumor sizes on the day before the study. At 0.5, 1, 2, and 4 h after intravenous administration of [^99mTc]-(HYNIC-AF7P)(tricine)(TPPTS), MDA-MB-231 tumor bearing mice were euthanized. […] The organ uptake was calculated as a percentage of the injected dose per gram of wet tissue (%ID/g).

SMILES: CC(C)C[C@H](NC(=O)[C@H](Cc1ccccc1)NC(=O)[C@@H](NC(=O)[C@H](CCCCN)NC(=O)[C@@H](NC(=O)[C@H](CC(N)=O)NC(=O)[C@H](Cc1c[nH]cn1)NC(=O)[C@H](CC(C)C)NC(=O)[C@H](Cc1c[nH]cn1)NC(=O)[C@H](CCCCN)NC(=O)[C@H](Cc1c[nH]c2ccccc12)NC(=O)[C@H](Cc1c[nH]cn1)NC(=O)c1ccc(NN)nc1)[C@@H](C)O)[C@@H](C)O)C(=O)NCCOCCOCC(=O)O [[^99mTc]-(HYNIC-AF7P)(tricine)(TPPTS), metal not drawn] ({HYNIC}-HWKHLHNTKTFL[AEEA]-OH)
- tissue uptake at 0.5 h (BALB/c nude, blood, 0.5h after i.v., read-out: Blood uptake): 0.36 ± 0.02 %ID/g
- tissue uptake at 1 h (BALB/c nude, blood, 1h after i.v., read-out: Blood uptake): 0.28 ± 0.01 %ID/g
- tissue uptake at 2 h (BALB/c nude, blood, 2h after i.v., read-out: Blood uptake): 0.2 ± 0.01 %ID/g
- tissue uptake at 4 h (BALB/c nude, blood, 4h after i.v., read-out: Blood uptake): 0.19 ± 0.01 %ID/g
- tissue uptake at 0.5 h (BALB/c nude, bone, 0.5h after i.v., read-out: Bone uptake): 0.8 ± 0.04 %ID/g
- tissue uptake at 1 h (BALB/c nude, bone, 1h after i.v., read-out: Bone uptake): 0.58 ± 0.03 %ID/g
- tissue uptake at 2 h (BALB/c nude, bone, 2h after i.v., read-out: Bone uptake): 0.44 ± 0.02 %ID/g
- tissue uptake at 4 h (BALB/c nude, bone, 4h after i.v., read-out: Bone uptake): 0.4 ± 0.02 %ID/g
- tissue uptake at 0.5 h (BALB/c nude, heart, 0.5h after i.v., read-out: Heart uptake): 2.28 ± 0.16 %ID/g
- tissue uptake at 1 h (BALB/c nude, heart, 1h after i.v., read-out: Heart uptake): 1.67 ± 0.2 %ID/g
- tissue uptake at 2 h (BALB/c nude, heart, 2h after i.v., read-out: Heart uptake): 0.98 ± 0.07 %ID/g
- tissue uptake at 4 h (BALB/c nude, heart, 4h after i.v., read-out: Heart uptake): 0.64 ± 0.04 %ID/g
- tissue uptake at 0.5 h (BALB/c nude, kidney, 0.5h after i.v., read-out: Kidney uptake): 8.86 ± 0.48 %ID/g
- tissue uptake at 1 h (BALB/c nude, kidney, 1h after i.v., read-out: Kidney uptake): 7.42 ± 0.43 %ID/g
- tissue uptake at 2 h (BALB/c nude, kidney, 2h after i.v., read-out: Kidney uptake): 4.84 ± 0.19 %ID/g
- tissue uptake at 4 h (BALB/c nude, kidney, 4h after i.v., read-out: Kidney uptake): 4.33 ± 0.2 %ID/g
- tissue uptake at 0.5 h (BALB/c nude, liver, 0.5h after i.v., read-out: Liver uptake): 5.22 ± 0.17 %ID/g
- tissue uptake at 1 h (BALB/c nude, liver, 1h after i.v., read-out: Liver uptake): 3.9 ± 0.32 %ID/g
- tissue uptake at 2 h (BALB/c nude, liver, 2h after i.v., read-out: Liver uptake): 2.89 ± 0.11 %ID/g
- tissue uptake at 0.5 h (BALB/c nude, lung, 0.5h after i.v., read-out: Lung uptake): 2.11 ± 0.06 %ID/g
- tissue uptake at 1 h (BALB/c nude, lung, 1h after i.v., read-out: Lung uptake): 1.45 ± 0.18 %ID/g
- tissue uptake at 2 h (BALB/c nude, lung, 2h after i.v., read-out: Lung uptake): 1.01 ± 0.03 %ID/g
- tissue uptake at 4 h (BALB/c nude, lung, 4h after i.v., read-out: Lung uptake): 0.7 ± 0.09 %ID/g
- tissue uptake at 0.5 h (BALB/c nude, muscle, 0.5h after i.v., read-out: Muscle uptake): 0.9 ± 0.06 %ID/g
- tissue uptake at 1 h (BALB/c nude, muscle, 1h after i.v., read-out: Muscle uptake): 0.68 ± 0.09 %ID/g
- tissue uptake at 2 h (BALB/c nude, muscle, 2h after i.v., read-out: Muscle uptake): 0.53 ± 0.04 %ID/g
- tissue uptake at 4 h (BALB/c nude, muscle, 4h after i.v., read-out: Muscle uptake): 0.52 ± 0.04 %ID/g
- tissue uptake at 0.5 h (BALB/c nude, spleen, 0.5h after i.v., read-out: Spleen uptake): 0.9 ± 0.07 %ID/g
- tissue uptake at 1 h (BALB/c nude, spleen, 1h after i.v., read-out: Spleen uptake): 0.71 ± 0.06 %ID/g
- tissue uptake at 2 h (BALB/c nude, spleen, 2h after i.v., read-out: Spleen uptake): 0.56 ± 0.06 %ID/g
- tissue uptake at 4 h (BALB/c nude, spleen, 4h after i.v., read-out: Spleen uptake): 0.41 ± 0.02 %ID/g
- tissue uptake at 0.5 h (athymic nude, intestine, 0.5h after i.v., read-out: Intestine uptake): 1.91 ± 0.05 %ID/g
- tissue uptake at 1 h (athymic nude, intestine, 1h after i.v., read-out: Intestine uptake): 1.61 ± 0.07 %ID/g
- tissue uptake at 2 h (athymic nude, intestine, 2h after i.v., read-out: Intestine uptake): 1.52 ± 0.12 %ID/g
- tissue uptake at 4 h (athymic nude, intestine, 4h after i.v., read-out: Intestine uptake): 1.14 ± 0.08 %ID/g
- tissue uptake at 4 h (athymic nude, liver, 4h after i.v., read-out: Liver uptake): 2.55 ± 0.1 %ID/g
- tissue uptake at 0.5 h (athymic nude, pancreas, 0.5h after i.v., read-out: Pancreas uptake): 0.77 ± 0.02 %ID/g
- tissue uptake at 1 h (athymic nude, pancreas, 1h after i.v., read-out: Pancreas uptake): 0.52 ± 0.03 %ID/g
- tissue uptake at 2 h (athymic nude, pancreas, 2h after i.v., read-out: Pancreas uptake): 0.35 ± 0.04 %ID/g
- tissue uptake at 4 h (athymic nude, pancreas, 4h after i.v., read-out: Pancreas uptake): 0.19 ± 0.02 %ID/g
- tissue to tissue ratio at 0.5 h (athymic nude, tumor and intestine, 0.5h after i.v., read-out: Tumor/Intestine ratio): 1.76 ± 0.1
- tissue to tissue ratio at 1 h (athymic nude, tumor and intestine, 1h after i.v., read-out: Tumor/Intestine ratio): 1.61 ± 0.17
- tissue to tissue ratio at 2 h (athymic nude, tumor and intestine, 2h after i.v., read-out: Tumor/Intestine ratio): 1.44 ± 0.13
- tissue to tissue ratio at 4 h (athymic nude, tumor and intestine, 4h after i.v., read-out: Tumor/Intestine ratio): 0.93 ± 0.12
- tissue to tissue ratio at 4 h (athymic nude, tumor and liver, 4h after i.v., read-out: Tumor/Liver ratio): 0.41 ± 0.04
- tissue to tissue ratio at 0.5 h (athymic nude, tumor and pancreas, 0.5h after i.v., read-out: Tumor/Pancreas ratio): 4.4 ± 0.43
- tissue to tissue ratio at 1 h (athymic nude, tumor and pancreas, 1h after i.v., read-out: Tumor/Pancreas ratio): 4.98 ± 0.16
- tissue to tissue ratio at 2 h (athymic nude, tumor and pancreas, 2h after i.v., read-out: Tumor/Pancreas ratio): 6.28 ± 0.7
- tissue to tissue ratio at 4 h (athymic nude, tumor and pancreas, 4h after i.v., read-out: Tumor/Pancreas ratio): 5.67 ± 0.82
- tissue to tissue ratio at 0.5 h (athymic nude, tumor/blood, 0.5h after i.v., read-out: Tumor/Blood ratio): 9.27 ± 0.28
- tissue to tissue ratio at 1 h (athymic nude, tumor/blood, 1h after i.v., read-out: Tumor/Blood ratio): 9.36 ± 0.73
- tissue to tissue ratio at 2 h (athymic nude, tumor/blood, 2h after i.v., read-out: Tumor/Blood ratio): 11.1 ± 0.74
- tissue to tissue ratio at 4 h (athymic nude, tumor/blood, 4h after i.v., read-out: Tumor/Blood ratio): 5.54 ± 0.55
- tissue to tissue ratio at 0.5 h (athymic nude, tumor/bone, 0.5h after i.v., read-out: Tumor/Bone ratio): 4.21 ± 0.2
- tissue to tissue ratio at 1 h (athymic nude, tumor/bone, 1h after i.v., read-out: Tumor/Bone ratio): 4.5 ± 0.51
- tissue to tissue ratio at 2 h (athymic nude, tumor/bone, 2h after i.v., read-out: Tumor/Bone ratio): 5.01 ± 0.38
- tissue to tissue ratio at 4 h (athymic nude, tumor/bone, 4h after i.v., read-out: Tumor/Bone ratio): 2.6 ± 0.15
- tissue to tissue ratio at 0.5 h (athymic nude, tumor/heart, 0.5h after i.v., read-out: Tumor/Heart ratio): 1.49 ± 0.23
- tissue to tissue ratio at 1 h (athymic nude, tumor/heart, 1h after i.v., read-out: Tumor/Heart ratio): 1.56 ± 0.26
- tissue to tissue ratio at 2 h (athymic nude, tumor/heart, 2h after i.v., read-out: Tumor/Heart ratio): 2.23 ± 0.2
- tissue to tissue ratio at 4 h (athymic nude, tumor/heart, 4h after i.v., read-out: Tumor/Heart ratio): 1.66 ± 0.21
- tissue to tissue ratio at 0.5 h (athymic nude, tumor/kidney, 0.5h after i.v., read-out: Tumor/Kidney ratio): 0.38 ± 0.01
- tissue to tissue ratio at 1 h (athymic nude, tumor/kidney, 1h after i.v., read-out: Tumor/Kidney ratio): 0.35 ± 0.01
- tissue to tissue ratio at 2 h (athymic nude, tumor/kidney, 2h after i.v., read-out: Tumor/Kidney ratio): 0.45 ± 0.04
- tissue to tissue ratio at 4 h (athymic nude, tumor/kidney, 4h after i.v., read-out: Tumor/Kidney ratio): 0.24 ± 0.02
- tissue to tissue ratio at 0.5 h (athymic nude, tumor/liver, 0.5h after i.v., read-out: Tumor/Liver ratio): 0.65 ± 0.06
- tissue to tissue ratio at 1 h (athymic nude, tumor/liver, 1h after i.v., read-out: Tumor/Liver ratio): 0.67 ± 0.07
- tissue to tissue ratio at 2 h (athymic nude, tumor/liver, 2h after i.v., read-out: Tumor/Liver ratio): 0.75 ± 0.05
- tissue to tissue ratio at 0.5 h (athymic nude, tumor/lung, 0.5h after i.v., read-out: Tumor/Lung ratio): 1.6 ± 0.18
- tissue to tissue ratio at 1 h (athymic nude, tumor/lung, 1h after i.v., read-out: Tumor/Lung ratio): 1.81 ± 0.34
- tissue to tissue ratio at 2 h (athymic nude, tumor/lung, 2h after i.v., read-out: Tumor/Lung ratio): 2.17 ± 0.14
- tissue to tissue ratio at 4 h (athymic nude, tumor/lung, 4h after i.v., read-out: Tumor/Lung ratio): 1.51 ± 0.3
- tissue to tissue ratio at 0.5 h (athymic nude, tumor/muscle, 0.5h after i.v., read-out: Tumor/Muscle ratio): 3.77 ± 0.42
- tissue to tissue ratio at 1 h (athymic nude, tumor/muscle, 1h after i.v., read-out: Tumor/Muscle ratio): 3.86 ± 0.75
- tissue to tissue ratio at 2 h (athymic nude, tumor/muscle, 2h after i.v., read-out: Tumor/Muscle ratio): 4.17 ± 0.49
- tissue to tissue ratio at 4 h (athymic nude, tumor/muscle, 4h after i.v., read-out: Tumor/Muscle ratio): 2.02 ± 0.09
- tissue to tissue ratio at 0.5 h (athymic nude, tumor/spleen, 0.5h after i.v., read-out: Tumor/Spleen ratio): 3.75 ± 0.46
- tissue to tissue ratio at 1 h (athymic nude, tumor/spleen, 1h after i.v., read-out: Tumor/Spleen ratio): 3.66 ± 0.58
- tissue to tissue ratio at 2 h (athymic nude, tumor/spleen, 2h after i.v., read-out: Tumor/Spleen ratio): 3.94 ± 0.57
- tissue uptake at 0.5 h (tumor, 0.5 h after i.v. administration, MDA-MB-231 xenograft, BALB/c nude mice, read-out: Tumor uptake (biodistribution)): 3.37 ± 0.27 %ID/g
- tissue uptake at 1 h (tumor, 1 h after i.v. administration, MDA-MB-231 xenograft, BALB/c nude mice, read-out: Tumor uptake (biodistribution)): 2.59 ± 0.21 %ID/g
- tissue uptake at 2 h (tumor, 2 h after i.v. administration, MDA-MB-231 xenograft, BALB/c nude mice, read-out: Tumor uptake (biodistribution)): 2.18 ± 0.11 %ID/g
- tissue uptake at 4 h (tumor, 4 h after i.v. administration, MDA-MB-231 xenograft, BALB/c nude mice, read-out: Tumor uptake (biodistribution)): 1.05 ± 0.07 %ID/g
